In US5534407 one finds activity data, which are given here for 1 substance.

The test system of data set [1] is T7 gene 2.5 protein (Bacteriophage T7). As to conditions: renaturation t1/2 by agarose gel annealing assay; 10 mM MgCl2, 50 mM NaCl, pH 7.5, 37 C, no ATP; none >30,000 min.
In data set [2] the test system is RecA protein (Escherichia coli). The note with it: renaturation t1/2 with about 500 uM ATP; little renaturation without ATP; 10 mM MgCl2, 50 mM NaCl, 37 C.
Data set [3] relates to T4 gene 32 protein (Bacteriophage T4). As to conditions: renaturation t1/2; about 1% annealed after 60 min; 10 mM MgCl2, 50 mM NaCl, 37 C.

On to “167-nt fragment (primer-extended to XmnI site) plus circular M13 mGP1-2 ssDNA”, for which the activity in data set [1] was found to be 1 min; in data set [2], 60 min; in data set [3] it was 3000 min.
